A short description of the series: yeast display, Sf9 membrane polyspecificity reagent, FACS + sequencing; frameworks hold sequencing errors. The procedure, abridged:
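A synthetic nanobody library was expressed on Saccharomyces cerevisiae BJ5465 by galactose induction for 36–48 hours. The library was stained for 1 hour at 4 °C with 10% biotinylated, detergent-solubilized Sf9 membrane reagent and enriched with streptavidin microbeads before FACS. Low and high (top ~1%) gates were set on anti-HA fluorescence for expression and streptavidin fluorescence for reagent binding, and each polyreactivity label reflects the gate of origin.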
For “QVQLVESRGGLVQAGGSLRLSCAASGSIFNANAMGWYRQAPGKEREIVAAITRAGGGTYYADSVKGRFTISRVNAKNTVYLQMNRLKPEDTAVYYCAREVFFYASTGQTYGYWGQGTQVTVSS”, the “polyreactivity (PSR sort gate)” value was “high polyreactivity”.

As to “QVQLVESWGGLVQAGGSLRLRFAASVRTFVSNAMGWYRQAPGKERELVARITGSGGNTYYADSVKGRFTISRDNEKNTVYLQMNSLKPEDTAVYYCNSDVFRKFGSPSGYKSHRYDYWGQGTQVTVSS”, the “polyreactivity (PSR sort gate)” value is “low polyreactivity”.

“QVQLVESGGGLVQAGGSLRLSCAASGFTFPWYAMGWYRQAPGKERELVAAISIGTGRTYYADSVKGRFTISRDNAKNTVYLQMNSLKPEDTAVYYCAAEDQYYEDGYWGQGTQVTVSS”: the “polyreactivity (PSR sort gate)” value is “high polyreactivity”.

For the sequence “QVQLVKSGGGLVQAGGSLRLSCAASGSTFYNAMGWYRQAPGKEREWVAAISIGGSTYYADSVKGRFTISRDNAKNTVYLQMNSLKPEDTAVYYCNSDLYYWLRYYDRNDYWGQGTQVTVSS”, the “polyreactivity (PSR sort gate)” value is given as “low polyreactivity”.

As to “QVQLEESGGGLVQAGGSLRLSCAASGRIFGGYAMGWYRQAPGKERELVAAITSSGSTNYADSVKGRFTISRDNAKNTVYLQMNSLKPEDTAVYYCATDFKTVYYWWGMDYWGQGTQVTVSS”, the “polyreactivity (PSR sort gate)” value is “low polyreactivity”.

With “QVQLVESGVGLVQAGGSLRLSCAASVYTFFIYAMRWYRHAHGQERELVARIRATGDSTYYADSVKGRFTISRDNAKNTVYLQMNSLKPDDTAVYYFNVRPVYSYREYGYWGQGTQVTVSS”, the “polyreactivity (PSR sort gate)” value is on record as “high polyreactivity”.

Consider “QVQLVESGGRLVQAGGSLRLSCAASGLIFVHYAMGWYRQSPGKERELVAAISAGGGSTYYADSVKGRFTISRDNAKNTVYLQMNSLKPEDTAVYYCNARVVNYVRPRTGAREYDFWGQGTQVTVSS”, for which the “polyreactivity (PSR sort gate)” value is reported as “high polyreactivity”.

With “QVQLVESGGGLVQAGGSLRLSCAASGRIFVDNAMGWYRQAPGKERELVAAINYSGGGTYYADSVKGRFTISRDNAKNTVYLQMNSLKPEDTAVYYCAADSDSFWGVPSYYWGQGTQVTVSS”, the “polyreactivity (PSR sort gate)” value is reported as “low polyreactivity”.

With “QVQLVESGGGLVQAGGSLRLSCAASGIIFIYYAMGWYRQAPGKERELVAAISQSGVNTYYADSVKGRFTISRDNAKNTVYLQMNSLKPEDTAVYYCAADRYGHFGYWGQGTQVTVSS”, the “polyreactivity (PSR sort gate)” value is listed as “high polyreactivity”.

“QVQLVESGGGLVQAGGSLRLSCAASGSTFRVNGMGWYRQAPGKERELVAVISWSGGSTYYADSVKGRFTISRDNAKNSVYLQMNSLKPEDTAVYYCAAKVKAGAGYHYDYYWGQGTQVTVSS”: the “polyreactivity (PSR sort gate)” value is “high polyreactivity”.

“QVQLVESGGGLVQAGGSLRLSCAASGSIFTVYAMGWYRQAPGKERELVAAIRRTGSRTYYADSVKGRFTISRDNAKNTVYLQMNSLKPEDTAVYYCAADGWYDRRSVRLNYWGQGTQVTVSS”: the “polyreactivity (PSR sort gate)” value is “high polyreactivity”.

Regarding “QVQIGQSGGGLVQAGGSLRLSCAASGRIIWSNAMGWNRQAPGKERELVAAIRNTGSTNYADSVKGRFTISRDNAKNTVYLQMNSLKPEDTEVYYCAADRATYCTYAYGYWGQGTQVTVSS”, the “polyreactivity (PSR sort gate)” value was “high polyreactivity”.

“QVQLVESGGGLVQAGGSLRLSCAASGRIIRINAMGWYRQAPGKERELVATISRSGGRTYYADSVKGRFTISRDNAKNTVYLQMNSLKPEDTAVYYCNADHFYYSSQYGYWGQGTQVTVSS”: the “polyreactivity (PSR sort gate)” value is recorded as “high polyreactivity”.

In the case of “QVQLVESGGGLVQAGGSLRLSCAASGFIFRWYAMGWYRQAPGKERELVAGISASGGSTYYADSVKGRFTISRDNAKNTVYLQMNSLKPEDTAVYYCAAYRRNSRWELDYWGQGTQVTVSS”, the “polyreactivity (PSR sort gate)” value is recorded as “high polyreactivity”.

Consider “QVQLVESGGGLVQAGGSLRLSCAASGRTFRINAMGCYRQAPGKERELVAAITSGGRTNYADSVKGRFTISRDNAKNTVYLQMNSLKPEDTAVYYCAAERTPSYRAYDYWGQGTQVTVSS”, for which the “polyreactivity (PSR sort gate)” value is “low polyreactivity”.

Consider “QVQLVESGGGLVQEGGSLRLICAASGRTFYKNAMGWYRPAPAKERELVAAISSRGGRTTYADSLKGRYTISRDNAKNTVYLQMNSLKTEDTAVYYCAADWEYDYWGQGTHVTVSS”, for which the “polyreactivity (PSR sort gate)” value is “high polyreactivity”.

Consider “QVQLVESGGGLVQAGGSLRLSCAASGLTFVDYAMGWYRPAPGKERELVAGISYSGGSTYYADSVKGRFTISRDNAKNTVYLQMNSLKPEDTAVYYCAAKYRRPRYGYWGQGTQVTVSS”, for which the “polyreactivity (PSR sort gate)” value is recorded as “high polyreactivity”.

“QVQLVESGGGLVQAGGSLRLSCAASGSTFHGNAMGWYRQAPGKERELVAAISRSGGSTYYADSVKGRFTISRDNEKNTVYLQMNSLKPEDNAVYYCAADRPYYPLKYDYWGQGTQVTVSS”: the “polyreactivity (PSR sort gate)” value was “high polyreactivity”.

In the case of “QVQLVESGGGLVQAGGSLRLSCAASGNIFLYYAMGWYRQAPGKERELVADIDSSGASTYYADSVKGRFTISRDNAKNTVYLQMNSLKPEDTAVYNCAARAERVREYNYWGQGTQVTVSS”, the “polyreactivity (PSR sort gate)” value was “low polyreactivity”.

On to “QVKLVESGGGLVQAGGSLRLSCAASGRIFWSNAMVWYRQAPGKERELVAAISRRGGRTYYADSVKGRFTISRDNAKNTVYLQMNSLKPEDTAVYYCAADGTADYDYWGQGTQVTVSS”, for which the “polyreactivity (PSR sort gate)” value is reported as “high polyreactivity”.

For the sequence “QVQLVESGGGLVQAGGSLRLSCAASGYIFGNYAMGCYRQAPGKERELVAAISKSGVTTYYADSVKGRFTISRDNAKNTVYLQMNSLKPEDTAVYYCNARSWRPINARYNEYDYWGQGTQVTVSS”, the “polyreactivity (PSR sort gate)” value was “low polyreactivity”.

Consider “QVQLVESGGGLVQAGGSLRLSCAASGFTFTYNDMGWYRQAPGKEREFVAAISSTGGSTYYADSVQGRFTISRDNAKNTVYLQMNSLKPEDTAVYYCAAEDSWYWDAWFDYWGQGTQVTVSS”, for which the “polyreactivity (PSR sort gate)” value is “low polyreactivity”.

For “QVQLVESGGGLVQAGGSLRLTCAASGSIFSRYAMGWYRQAPGKERELVAAISQRAGSTYYADSVKGRFTISRDNAKNTVYLQMNSLKPEDTAVYYCAARRRGRKERGEDYWGQGTQVTVSS”, the “polyreactivity (PSR sort gate)” value was “high polyreactivity”.

Take “QVQLVESGGGLVQAGGSLRLSCAASGSTFWYYAMGWYRQAPGKERELVADITISGGSTYYSDSVKGRFTISRDNAKNTVYLQMNSLKPEDTAVYYCATDDTHRVGWFDYWGQGTQVTVSS”: the “polyreactivity (PSR sort gate)” value is reported as “low polyreactivity”.

For the sequence “QVQLVESGGGLVQAGGSLRLSCAASGSTFSYYAMGGYRQEPGKERELVAAISRGTRTYYADSVKGSFSISRDNAKNTVYLLMNSLKAEDTAVYYCAADLWYTRYYYWGQGTQVTVSS”, the “polyreactivity (PSR sort gate)” value is recorded as “high polyreactivity”.

Consider “QVQLVESGGGLDQAGGSLRLSCAASGRTLYKYAMGWYRQAPGKERELVAAIRWIGGSTYYADSVKGRFTISRDNAKNTVYLQMNSLKPEDTAVYYCAATYYYSRYGRYDYWGQGTQVTVSS”, for which the “polyreactivity (PSR sort gate)” value was “high polyreactivity”.

In the case of “LVQHQESGGGLVQAGGSLRLSCAASGTIFLRYYMGWYRQAPGKQREFVAAINIGATANYADSLKGRFTISRDNAKNTVYLQMKSLYPQDTAVYYCAVYYPIYRQHDYWGQGSQVTVSS”, the “polyreactivity (PSR sort gate)” value is “low polyreactivity”.

On to “QVQLVESAGGLVQAGGSLRLSCAASGSIFSPYAMGWYRQAPGKERELVAAITWNGGRTYYADSVKGRFTISRDNAKNTVYLHMNSLKPEDTAVYYCTAASQSRYYYWGQGTQVTVSS”, for which the “polyreactivity (PSR sort gate)” value was “high polyreactivity”.

With “QVQLVESGGGLVQAGRSLRLSCAASGFIFWRYAMGWYRQAPGKERELVAAISSGRNTKYADSVKGRFTISRDNAKTTVYLQMNSLKPEDTAVYYCAVLGKYLWSATNRFPGSYDSWGHGTQVTVSS”, the “polyreactivity (PSR sort gate)” value is recorded as “high polyreactivity”.

As for “QDQLVESGGGLVQAGCSLRLSCDASGSTSYGYAMGWYRQAPGKERELVASISYSGSSTYYADSVKGRFTFSRDNAKNTVYLQMNSLKPEDTAVYYCNAKVYPCVGPKHRYDYWGQCTQVTVSS”, the “polyreactivity (PSR sort gate)” value is listed as “low polyreactivity”.

Regarding “QVQLVESGGGLVQAGGSLRLSCAASGRTFFTYAMGWYRQAPGKERELVAAITWSGGSTYYADSVKGRFTISRDNAKNTVYLQMNSLKPEDTAVYYCAADGSVAYYSAFGSVQIWYYYWGQGTQVTVSS”, the “polyreactivity (PSR sort gate)” value was “low polyreactivity”.

For “QVQLVESGGGLVQAGGSLRLSCAASGRIFGTNAMGWYRQAPRKERELVATITRGGGNTYYADSVKGRFTISRDNAKNTVYLQLNSLKPEDTAVYYCAAYDSVQKYWILGFDYWGQGTQVTVSS”, the “polyreactivity (PSR sort gate)” value is reported as “low polyreactivity”.

Regarding “QVQLVESGGGLVQAGGRLRFSCAASGSIFEYYTMGWYRQAPGKERELVAAISDGGSTYYADSVKGRFTISRDNAKNTVYLQMNSLKPDDTAFYYCAAEYQQDFWVAVDYWGQGTQLTVSS”, the “polyreactivity (PSR sort gate)” value was “low polyreactivity”.

“QVQLVESGGGLVQAGGSLRLSCAASGITFSRNAMGWYRQAPGKERELVAVISTRGGRTYYADSVKGRFTISRDNAKNTFYLQMNSLKPEDTAVYYCAASPDPYWRRMDYWGQGTQVTVSS”: the “polyreactivity (PSR sort gate)” value is “high polyreactivity”.

For “QVQLVESGGGLVQAGGSLRLSCAASGSTFTPNAMGWYRQAPGKERELVAAINWSDSSTYYADSVKGRFTISRDNAKNTVYLQMNSLKPEETAVYYCAAAAQYGQLQVPVYYWGQGTQVTVSS”, the “polyreactivity (PSR sort gate)” value was “low polyreactivity”.

Regarding “QVQLVESGGGLVQAGGRLRLSCAASGSTIGYYTMGWYRQAPGKERELVAAISWSGDSTYYADSVKGRFTISRDNAKNTVYLQMNSLKPEDTAVYYCAKVHYVRRGDSRYDYWGQGTQVTVSS”, the “polyreactivity (PSR sort gate)” value is “high polyreactivity”.

As to “QVQLVESGGGLVQAGGSLRLSCAASGSIFSPYAMGWYRQAPGKERELVDAISFRASTTYYADSVKGRFTISRDNAKNTVYLQMNSLKPEDTAVYYCAASPLYSWFWGLYDYWGQGTQVTVSS”, the “polyreactivity (PSR sort gate)” value is reported as “low polyreactivity”.

As to “QVQLVESGGGLVQAGGSLRLSCAASGRIFVSYAMGWYRQAPGKERELVAGISSSGGSTYYADSVKGRFTISRDNAKNTVYLQMNSLKPEDTAVYYCNTDQRSRMDYWGQGTQVTVSS”, the “polyreactivity (PSR sort gate)” value is recorded as “low polyreactivity”.

For the sequence “QVQLVESGGGLVQAGGSLRLSCAASGLTFNDYAMGWYRQAPGKERELVAAISDIGGGTYYADSVKGRFTISRDNAKNTVYLQMNSLKPEETAVYYCAAEWQDWYGVDSWGQGTQVTVSS”, the “polyreactivity (PSR sort gate)” value is reported as “low polyreactivity”.

As to “QVQLVESGGGLVQAGGSLRLSCAASGFTFYYNAMGWYRQAPGKERELVAAISASGGRTYYADSVKGRFTISRDNAKNTVYLQINSLKPEDTAVYYCAYRVYPHYGWYDYWGQGTQVTVSS”, the “polyreactivity (PSR sort gate)” value was “high polyreactivity”.

As to “QVQLVESGGGLVQAGGSLRLSCAASGFTLNGYAMGWYRQAPGKERELVAAISSSGGRTYYADSVKGRFTISRDNAKNTVYLQMNSLKPEDTAVYYCAAVVYYEDGYWGQGTQVTVSS”, the “polyreactivity (PSR sort gate)” value was “low polyreactivity”.

(Values after the nanobody polyreactivity screen of Harvey et al. (2022).)
